# Where a chain is given by its changes, count along the chain named.
# T1: Human CD98 expressed on stably transfected CHO-K1 cells (human)
# T1 construct: also called huCD98; CD98 heavy chain
# T1 chain: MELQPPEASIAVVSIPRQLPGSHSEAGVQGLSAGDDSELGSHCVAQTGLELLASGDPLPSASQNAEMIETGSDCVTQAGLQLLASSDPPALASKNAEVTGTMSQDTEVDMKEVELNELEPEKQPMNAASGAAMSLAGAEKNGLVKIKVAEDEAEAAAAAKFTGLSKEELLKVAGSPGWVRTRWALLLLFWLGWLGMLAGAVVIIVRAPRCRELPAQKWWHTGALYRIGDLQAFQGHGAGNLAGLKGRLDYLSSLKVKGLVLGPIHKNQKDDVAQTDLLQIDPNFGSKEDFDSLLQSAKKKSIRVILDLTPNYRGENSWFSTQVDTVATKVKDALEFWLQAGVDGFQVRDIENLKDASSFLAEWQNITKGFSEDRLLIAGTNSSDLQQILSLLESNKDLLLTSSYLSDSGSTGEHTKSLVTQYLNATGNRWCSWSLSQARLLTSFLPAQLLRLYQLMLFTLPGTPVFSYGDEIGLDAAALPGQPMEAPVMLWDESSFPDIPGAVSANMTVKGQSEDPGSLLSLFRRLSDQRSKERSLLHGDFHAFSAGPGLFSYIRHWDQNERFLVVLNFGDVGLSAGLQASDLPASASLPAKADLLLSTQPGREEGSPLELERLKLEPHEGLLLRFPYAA
# T2: Human CD98 ECD with C-terminal His-tag (human, UniProt P08195 105-529)
# T2 construct: also called huCD98 ECD; recombinant human CD98 extracellular domain
# T2 sequence: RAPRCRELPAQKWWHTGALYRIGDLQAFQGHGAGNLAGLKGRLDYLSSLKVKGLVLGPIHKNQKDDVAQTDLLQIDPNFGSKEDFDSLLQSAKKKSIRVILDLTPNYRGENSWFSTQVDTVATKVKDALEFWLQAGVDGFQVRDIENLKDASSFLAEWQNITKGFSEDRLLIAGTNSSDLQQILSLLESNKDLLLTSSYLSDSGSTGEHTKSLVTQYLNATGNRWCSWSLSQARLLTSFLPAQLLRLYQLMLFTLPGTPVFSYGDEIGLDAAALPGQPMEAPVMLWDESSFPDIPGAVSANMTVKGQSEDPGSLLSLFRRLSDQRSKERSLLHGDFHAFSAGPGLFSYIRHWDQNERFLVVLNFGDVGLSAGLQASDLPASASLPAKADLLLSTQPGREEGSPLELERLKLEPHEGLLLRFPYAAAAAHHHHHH
# T3: Cynomolgus monkey CD98 ECD with C-terminal His-tag (cynomolgus monkey, UniProt P08195 105-529 (human entry))
# T3 construct: also called cyCD98 ECD; recombinant cynomolgus monkey CD98 extracellular domain
# T3 chain: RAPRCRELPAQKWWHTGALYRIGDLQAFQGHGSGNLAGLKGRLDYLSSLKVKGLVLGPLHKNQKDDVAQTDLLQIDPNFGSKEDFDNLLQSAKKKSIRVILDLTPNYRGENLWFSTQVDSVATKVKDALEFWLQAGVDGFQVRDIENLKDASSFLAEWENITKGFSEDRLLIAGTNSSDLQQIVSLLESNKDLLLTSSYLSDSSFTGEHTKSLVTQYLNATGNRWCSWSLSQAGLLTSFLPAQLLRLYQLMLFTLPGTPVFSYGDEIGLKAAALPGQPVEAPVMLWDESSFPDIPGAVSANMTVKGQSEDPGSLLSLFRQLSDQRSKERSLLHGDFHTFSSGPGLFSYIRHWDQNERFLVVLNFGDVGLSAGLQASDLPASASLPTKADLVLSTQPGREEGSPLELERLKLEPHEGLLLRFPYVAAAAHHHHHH
# B1: Recombinant anti-CD98 chimeric antibody chAb8 (antibody, human IgG1, V domains shown)
# VH: EVQLVESGGGLVQPGRSLKLSCAASGFTFSDYAMAWVRQAPKKGLEWVASIIYDGRGTYYRDSVKGRFTISRDNAKSTLYLQMDSLRSEDTATYYCARQGDGTYYYWGYFDYWGQGVMVTVSS
# VL: DIVMTQSPSSLAVSAGETVTINCKSSQSLLSSGNQKNYLAWYQQKPGQSPKLLIYWASTRQSGVPDRFIGSGSGTDFTLTINSVQAEDLAIYYCQQYYDTPYTFGAGTKLELK
# B2: Recombinant anti-CD98 chimeric antibody chAb15 (antibody, human IgG1, V domains shown)
# VH: B1 VH with A33T, S50T, G100S
# VL: B1 VL with S31F, N82R, T100S
# B3: Recombinant anti-CD98 chimeric antibody chAb10 (antibody, human IgG1, V domains shown)
# VH: B1 VH with G44S, S50T, Y60C, Y105H
# VL: B1 VL with N82S, L110V, E111D
# B4: Recombinant anti-CD98 chimeric antibody chAb12 (antibody, human IgG1, V domains shown)
# VH: B1 VH with Y109S
# VL: B1 VL with N82S, Y93H
# B5: Recombinant anti-CD98 chimeric antibody chAb11 (antibody, human IgG1, V domains shown)
# VH: B1 VH with S50G
# VL: B1 VL with K24R, N82S
# B6: Recombinant anti-CD98 chimeric antibody chAb14 (antibody, human IgG1, V domains shown)
# VH: EVKLQQSGDELVRPGASVKISCKASGYTFTSYSMHWVKERPGQGLEWIGAIFPIIGTTEYNQKFKGKATLTADKSSNTANMELSRLTSEDSAVYYCARVYLSYFDYWGQGVMVTVSS
# VL: DIQMTQSPSFLSASVGDRVTINCKASQNINKYLDWYQRKHGEAPKLLIYNTNNLQTGIPSRFSGSGSGTDYTLTISSLQPEDVATYFCLQHSSRYTFGAGTKLELK
# B7: Recombinant anti-CD98 chimeric antibody chAb7 (antibody, human IgG1, V domains shown)
# VH: QVQLKESGPGLVQPSQTLSLTCTVSGFSLSTYGVIWVRQPPGKGLEWMGVIWANGNTNYNSTLKSRLSISRDTSKSQVYLKMNSLQTEDTATYYCARHYYDGTYYYGYFDYWGQGVMVTVSS
# VL: DIVMTQTPSSQAVSAGEKVTMNCKSSQSLLYSENKKNYLAWYQQKPGQSPKLLIYWASTRESGVPDRFIGSGSGTDFTLTISSVQAEDLAVYYCQQYYYFPYTFGPGTKLELK
# B8: Anti-CD98 murine hybridoma antibody Ab1 (antibody, V domains shown)
# VH: EVKLVESGGGLVQPGGSLRLSCATSGFTFTDYYMSWVRQPPGKALEWLGFIRNPANVYTTEYSASVKGRFTISRDNSQSILYLQMNTLRAEDSATYYCARASYGNSEGWFAYWGQGTLVTVSA
# VL: DIVMSQSPSSLAVSVGEKVTMSCKSSQNLLYNNNQKNYLAWYQQKPGQSPKLLIYWASTRESGVPDRFTGSGSGTDFTLTISSVKAEDLAVYYCQQYYSYPRTFGGGTKLEIK
# Target: T1, Human CD98 expressed on stably …
# Assay: flow cytometry, CHO-K1 cells expressing human CD98
# Procedure: (§1) Briefly, binding kinetics of anti-CD98 chimera mAbs for human and cynomolgus CD98 ECDs were determined by surface plasmon resonance-based measurements as described in Example 4. Table 10 reported the association and dissociation rate constants for CD98 binding, kₐ (M⁻¹s⁻¹) and kd (s⁻¹), and the equilibrium dissociation constant KD (M) of the interaction between antibodies and the target antigen. Binding of anti-CD98 chimera mAbs for CD98 on cell surface was evaluated by flow cytometry against CHO-K1 cell line stably transfected to express human CD98 and 3T12 cell line stably transfected to express cynomolgus monkey CD98.
row,EC50,Binder
1,2.61 nM,B1
2,6.63 nM,B2
3,6.45 nM,B3
4,2.89 nM,B4
5,4.57 nM,B5
6,3.75 nM,B6
7,2.56 nM,B7

# Target: T2, Human CD98 ECD with C-terminal His-tag
# Assay: SPR Biacore, anti-Fc capture of mAb, CD98 ECD analyte
# Procedure: (§2) The binding kinetics of these purified mouse and rat monoclonal anti-CD98 antibodies for purified recombinant CD98 protein (extracellular domain. ECD) were determined by surface plasmon resonance-based measurements made on Biacore T100/T200 instruments (GE Healthcare, Piscataway, N.J.) at 25° C. using an anti-Fc capture assay approach. Binding kinetic measurements were made in the assay buffer HBS-EP+: 10 mM Hepes, pH 7.4, 150 mM NaCl, 3 mM EDTA, 0.05% Tween 20). For example, approximately 8000 RU of anti-Fc (species specific) polyclonal antibody (Thermo Fisher Scientific Inc. Rockford, Ill.) diluted in 10 mM sodium acetate (pH 4.5) was directly immobilized across a CM5 research grade biosensor chip using a standard amine coupling kit according to manufacturer's instructions and procedures at 25 μg/ml. Unreacted moieties on the biosensor surface were blocked with ethanolamine. The test antibody to be captured as a ligand was diluted in running buffer to ˜0.5 μg/mL and injected over anti-Fc surface at a flow rate of 10 μL/min, CD98 binding and dissociation were observed under a continuous flow rate of 80 μL/min. Human and cynomolgus monkey CD98 ECDs, both with a C-terminal His-tag, are used for this study (Table 3). After each cycle the anti-Fc capture surface was regenerated using 10 mM Glycine-HCl, pH 1.5. During the assay, all measurements were referenced against the capture surface alone (i.e., with no captured test antibody) and buffer-only injections (no antigen) were used for double referencing. For kinetic analysis, rate equations derived from the 1:1 Langmuir binding model were fitted simultaneously, globally and with mass transfer term included to multiple referenced antigen binding curves using Biacore T100T200 Evaluation software.
Kd,kon,Binder
≤ 0.059 nM,85000 M⁻¹ s⁻¹,B8

# Target: T3, Cynomolgus monkey CD98 ECD with …
# Assay: as above
# Procedure: as §2
Kd,kon,Binder
≤ 0.12 nM,43000 M⁻¹ s⁻¹,B8

# Target: T2, Human CD98 ECD with C-terminal His-tag
# Assay: as above
# Remark: another data set of the same source
# Procedure: as §2
# (§3) Briefly, binding kinetics of anti-CD98 chimera mAbs for human and cynomolgus CD98 ECDs were determined by surface plasmon resonance-based measurements as described in Example 4.
Kd,koff,kon,Binder
4.2 nM,0.00028 s⁻¹,67000 M⁻¹ s⁻¹,B1
1.1 nM,4.6e-05 s⁻¹,43000 M⁻¹ s⁻¹,B2
3.3 nM,0.00033 s⁻¹,100000 M⁻¹ s⁻¹,B3
1.2 nM,6.3e-05 s⁻¹,54000 M⁻¹ s⁻¹,B4
28 nM,0.0013 s⁻¹,45000 M⁻¹ s⁻¹,B5
3.9 nM,8.4e-05 s⁻¹,22000 M⁻¹ s⁻¹,B6
0.45 nM,6.2e-05 s⁻¹,140000 M⁻¹ s⁻¹,B7

# Target: T3, Cynomolgus monkey CD98 ECD with …
# Assay: as above
# Remark: another data set of the same source
# Procedure: as §2, §3
Kd,koff,kon,Binder
17 nM,0.0005 s⁻¹,28000 M⁻¹ s⁻¹,B1
3.7 nM,7.4e-05 s⁻¹,20000 M⁻¹ s⁻¹,B2
11 nM,0.00064 s⁻¹,59000 M⁻¹ s⁻¹,B3
3.8 nM,9.3e-05 s⁻¹,24000 M⁻¹ s⁻¹,B4
110 nM,0.002 s⁻¹,18000 M⁻¹ s⁻¹,B5
110 nM,0.0014 s⁻¹,12000 M⁻¹ s⁻¹,B6
3.5 nM,0.00022 s⁻¹,63000 M⁻¹ s⁻¹,B7

# Target: T4, Cynomolgus monkey CD98 expressed on stably transfected 3T12 cells (cynomolgus monkey)
# T4 construct: whole, on cells; also called cyCD98
# Assay: flow cytometry, 3T12 cells expressing cynomolgus CD98
# Procedure: as §1
row,EC50,Binder
1,10.1 nM,B1
2,20.3 nM,B2
3,10.8 nM,B3
4,14.9 nM,B4
5,16.9 nM,B5
6,18 nM,B6
7,6.49 nM,B7

# Target: T2, Human CD98 ECD with C-terminal His-tag
# Assay: SPR Biacore, anti-Fc capture of mAb, CD98 ECD analyte; kd set to assay limit
# Procedure: as §2, with “During the assay, all measurements were referenced against the capture surface alone (i.e., with no captured test antibody) and buffer-only injections (no antigen) were used for double referencing. For kinetic analysis, rate equations derived from the 1:1 Langmuir binding model were fitted simultaneously, globally and with mass transfer term included to multiple referenced antigen binding curves using Biacore T100T200 Evaluation software.” left out
row,koff,Binder
1,≤ 5e-06 s⁻¹,B8

# Target: T3, Cynomolgus monkey CD98 ECD with …
# Assay: as above
# Procedure: as §2, with “During the assay, all measurements were referenced against the capture surface alone (i.e., with no captured test antibody) and buffer-only injections (no antigen) were used for double referencing. For kinetic analysis, rate equations derived from the 1:1 Langmuir binding model were fitted simultaneously, globally and with mass transfer term included to multiple referenced antigen binding curves using Biacore T100T200 Evaluation software.” left out
row,koff,Binder
1,≤ 5e-06 s⁻¹,B8
